Laboratory results as given in paper PMC6026317, “Molecular elements in FGF19 and FGF21 defining KLB/FGFR activity and specificity” (Molecular Metabolism, 2018).
Where a chain is given by its changes, count along the chain named. Names and notes keep the numbering of the source. “Also recorded” adds a separate entry of the source.

B1: FGF21-19A: Hybrid protein: FGF21 1–156 fused with FGF19 169–194 (K194A) (protein)
chain: HPIPDSSPLLQFGGQVRQRYLYTDDAQQTEAHLEIREDGTVGGAADQSPESLLQLKALKPGVIQILGVKTSRFLCQRPDGALYGSLHFDPEACSFRELLLEDGYNVYQSEAHGLPLHLPGNKSPHRDPAPRGPARFLPLPGLPPALPEPPGILAPQPLETDSMDPFGLVTGLEAVRSPSFEA
modifications: left off: SUMO (yeast), end not stated, cleaved | His6, end not stated, state not stated
B2: FGF21,A^164: Native FGF21 with D164A substitution (protein, UniProt Q9NSA1 29-209, looked up, variant D164A)
Fibroblast growth factor 21: HPIPDSSPLLQFGGQVRQRYLYTDDAQQTEAHLEIREDGTVGGAADQSPESLLQLKALKPGVIQILGVKTSRFLCQRPDGALYGSLHFDPEACSFRELLLEDGYNVYQSEAHGLPLHLPGNKSPHRDPAPRGPARFLPLPGLPPALPEPPGILAPQPPDVGSSAPLSMVGPSQGRSPSYAS
B3: FGF21: Human FGF21 (UniProtKB #Q9NSA1 29–209, designated 1–181) (protein)
chain: B2 Fibroblast growth factor 21 with A164D
modifications: left off: SUMO (yeast), end not stated, cleaved | His6, end not stated, state not stated
B4: FGF23: FGF23 (#Q9GZV9: 25–251) (protein, UniProt Q9GZV9 25-251, looked up)
Fibroblast growth factor 23: YPNASPLLGSSWGGLIHLYTATARNSYHLQIHKNGHVDGAPHQTIYSALMIRSEDAGFVVITGVMSRRYLCMDFRGNIFGSHYFDPENCRFQHQTLENGYDVYHSPQYHFLVSLGRAKRAFLPGMNPPPYSQFLSRRNEIPLIHFNTPIPRRHTRSAEDDSERDPLNVLKPRARMTPAPASCSQELPSAEDNSPMASDPLGVVRGGRVNTHAGGTGPEGCRPFAKFI

Legend:
293/KLB cells = assay: Agonist pERK AlphaLISA assay in 293/KLB cells; assay type: cell-based, human; conditions: 10 min at 37° C, n = 3
Protocol: (§1) 293T HEK cells expressing KLB (or KL) or Hep3B cells were plated to 5–6 x 10^4 cells/well density in 96-well cell culture plate coated with poly-D-Lysine (Corning). The cells were serum starved for four hours in 0.1% BSA fraction V (ThermoFisher) containing media prior to treatment with protein and/or an antagonist peptide at the mentioned concentrations for 10 min at 37° C. For the antagonist assays, a chosen fixed dose within the range of 0.8–30 nM (depending on the cell type) of FGF21 or FGF19 stimulant was added to all the wells. BaF3 cells expressing human KLB/FGFR1c or human KLB/FGFR4-1c chimera were seeded at 5 × 10^5 cells/well density in 96-well cell culture plate and serum-starved overnight. FGF21/19 analogs were diluted in 0.02% Tween-20 containing RPMI1640 medium and the cells were treated for 15 min at 37° C. Following the respective cell treatments, the cells were lysed (with lysis buffer provided in the kit) for 10 min at room temperature on a shaker and the lysate was mixed with reaction mixture (consisting of reaction buffer, activation buffer, acceptor and donor beads provided in the kit). Phosphorylated ERK1/2 (pERK) levels were subsequently recorded by EnSpire Alpha or Envision Multilabel plate reader (Perkin Elmer). The cell assays corresponding to 293/KLB or Hep3B cells were carried out with AlphaLISA SureFire Ultra pERK1/2 (Thr 202/Tyr204) kit (Perkin Elmer), and BaF3 cells were done using AlphaScreen pERK1/2 (Thr202/Tyr204) kit (Perkin Elmer).
All cellular phosphorylation data were analyzed using 3-parameter non-linear regression curve in GraphPad Prism 7. Graphs are represented as relative maximal (100%) response of the positive control. All other test analog signals were adjusted accordingly as % values. […] Each peptide and protein analog was tested in triplicates in three independent experiments (n = 3), and normalized graphs plotted are expressed as mean ± SD unless otherwise noted.

Hep3B cells = assay: Agonist pERK AlphaLISA assay in Hep3B cells; assay type: cell-based, human; conditions: 10 min at 37° C, n = 3
Protocol: as §1, with “Following the respective cell treatments, the cells were lysed (with lysis buffer provided in the kit) for 10 min at room temperature on a shaker and the lysate was mixed with reaction mixture (consisting of reaction buffer, activation buffer, acceptor and donor beads provided in the kit).” left out, “The cell assays corresponding to 293/KLB or Hep3B cells were carried out with AlphaLISA SureFire Ultra pERK1/2 (Thr 202/Tyr204) kit (Perkin Elmer), and BaF3 cells were done using AlphaScreen pERK1/2 (Thr202/Tyr204) kit (Perkin Elmer).” left out
(§2) All cellular phosphorylation data were analyzed using 3-parameter non-linear regression curve in GraphPad Prism 7. […] Each peptide and protein analog was tested in triplicates in three independent experiments (n = 3), and normalized graphs plotted are expressed as mean ± SD unless otherwise noted.

[1] = tested on: diet-induced obese (DIO) mice; assay: In vivo FGF21 agonism study in DIO mice; design: species or system mouse; conditions: for Body weight change: daily sc 0.1, 0.3 or 1 mg/kg for 7 days, n = 8
Text: (§3) All animal studies were approved by and performed according to the guidelines of the Institutional Animal Care and Use Committee of the University of Cincinnati (Cincinnati, USA). Eight-week old male C57BL/6J mice (Jackson Laboratories) were given ad libitum access to either a chow diet (lean mice), or a high-fat high-sugar diet (HFD, DIO mice) containing 58% kcal from fat (Research Diets, catalog# D12331). For DIO mice, animals were maintained on the HFD for a minimum of 3 months prior to initiation of the pharmacological studies. The mice were maintained at 22 °C on a 12-h light–dark cycle with free access to water. Before the beginning of the studies, mice were randomized into treatment groups according to body weight. All injections and tests were performed during the light cycle with a group size of n = 8.
Mice were administered vehicle, FGF21 or FGF21-19A (0.1, 0.3 and 1 mg/kg) daily via sc injections and their body weight measurements were made on alternative days. At the end of 7 day treatment, blood was collected from tail veins using EDTA-coated microvette tubes (Sarstedt), immediately placed on ice, centrifuged at 5000 × g and 4 °C for 10 min, and plasma was stored at −80 °C until analyzed. Triglycerides and cholesterol levels were analyzed using colorimetric assay (Thermo Fisher).
Statistical analyses for in vivo experiments were performed on data using a one- (Figure 5A,B and 5D) or two-way (Figure 5C) ANOVA followed by Tukey post hoc multiple comparison analysis. All results are presented as mean ± SEM, n = 5–8, and P < 0.05 was considered significant. Group size estimations were based upon a power calculation to minimally yield an 80% chance to detect a significant difference in body weight of P < 0.05.

lean (C57BL/6J) mice = assay: In vivo peptide antagonism study, cFos and EGR1 mRNA in pancreas and eWAT; design: species or system mouse; conditions: 1 mg/kg sc, one hour, WAT and pancreas
Text: as §3
Mice were administered vehicle, FGF21 (1 mg/kg), or FGF19 (1 mg/kg) alone or in combination with 19C26,A^26 (30 mg/kg), (dosed 15 min prior to FGF21 or FGF19 administration) via sc injections. One-hour post FGF21 or FGF19 dosing, the mice were sacrificed and their plasma, pancreas, and epididymal white adipose tissue (eWAT) were harvested for analyses. […] Following reverse transcription, levels of cFos and early growth response-1 (EGR1) mRNA levels were subsequently probed by quantitative PCR (ThermoFisher) and analyzed by ΔΔCT method. […]

[2] = tested on: human FGFR4-1c chimera/KLB; assay: Agonist pERK AlphaScreen assay in BaF3 cells, FGFR4-1c chimera/KLB; assay type: cell-based; conditions: BaF3 cells co-expressing KLB and FGFR4-1c chimera; 15 min at 37° C; n = 3
Text: (§4) For generating receptor specific BaF3 cell line, human FGFR1c cDNA was cloned into pMXs-IRES-Puro vector (Cell Biolabs) to generate the expression plasmid pMX-FGFR1c-IRES-Puro. Human FGFR4 sequence was re-engineered to enhance signaling by constructing chimeric cDNA encoding the extracellular region of FGFR4 fused to the intracellular region and tyrosine kinase domain of FGFR1c, and the chimeric sequence was cloned into pMX-IRES-Puro vector to generate the expression plasmid pMX-chimeric FGFR4-1c-IRES-Puro. Human KLB cDNA was cloned into pMXs-IRES-Neo vector (Cell Biolabs) to generate expression plasmid pMX-KLB-IRES-Neo. BaF3 cells were transfected with pMX-FGFR1c-IRES-Puro and pMX- FGFR4-1c chimera-IRES-Puro expression plasmids respectively by electroporation (Xcell machine, Bio-Rad, 950 μF, 370V). Cells were selected with media containing 1 μg/ml Puromycin for 10–12 days. […]
(§5) 293T HEK cells expressing KLB (or KL) or Hep3B cells were plated to 5–6 x 10^4 cells/well density in 96-well cell culture plate coated with poly-D-Lysine (Corning). […] Phosphorylated ERK1/2 (pERK) levels were subsequently recorded by EnSpire Alpha or Envision Multilabel plate reader (Perkin Elmer). […]
(§6) All cellular phosphorylation data were analyzed using 3-parameter non-linear regression curve in GraphPad Prism 7. […]

human FGFR1/KLB = assay: Agonist pERK AlphaScreen assay in BaF3 cells, FGFR1/KLB; assay type: cell-based; conditions: BaF3 cells co-expressing KLB and FGFR1; 15 min at 37° C; n = 3
Text: as §4, §5, §6

293/KL cells = assay: Agonist pERK assay in 293/KL cells; assay type: cell-based, human; conditions: n = 3
Protocol: as §1, with “Following the respective cell treatments, the cells were lysed (with lysis buffer provided in the kit) for 10 min at room temperature on a shaker and the lysate was mixed with reaction mixture (consisting of reaction buffer, activation buffer, acceptor and donor beads provided in the kit).” left out, “The cell assays corresponding to 293/KLB or Hep3B cells were carried out with AlphaLISA SureFire Ultra pERK1/2 (Thr 202/Tyr204) kit (Perkin Elmer), and BaF3 cells were done using AlphaScreen pERK1/2 (Thr202/Tyr204) kit (Perkin Elmer).” left out
as §2

[3] = daily sc 0.1, 0.3 or 1 mg/kg, day 7

| Molecule | pERK agonist activity, in words (293/KLB cells) | pERK agonist activity, in words (Hep3B cells) | Body weight change [1] | Circulating insulin [1, 3] | Fasted plasma glucose, difference to native FGF21 [1, 3] | Plasma cholesterol ([1]; daily sc 0.1, 0.3 or 1 mg/kg, end of 7 day treatment) | cFos and EGR1 transcriptional activity, FGF alone (lean (C57BL/6J) mice) | pERK agonist activity, in words [2] | pERK agonist activity, in words (human FGFR1/KLB) | pERK agonist activity, in words (293/KL cells) |
| --- | --- | --- | --- | --- | --- | --- | --- | --- | --- | --- |
| B1 | significantly more potent when compared to native FGF21; also recorded: ten-fold-enhanced in vitro potency | significantly more potent when compared to native FGF21; also recorded: ten-fold-enhanced in vitro potency | dramatically more potent at each corresponding dose | potently reduced circulating insulin when compared to vehicle treatment | statistically different only at the 0.3 mg/kg dose | plasma cholesterol was lowered | – | – | – | – |
| B2 | only negligible activity | – | – | – | – | – | – | – | – | – |
| B3 | nanomolar potencies | – | induced weight loss in a dose-dependent manner | potently reduced circulating insulin when compared to vehicle treatment | – | – | induced robust transcriptional activity in each tissue | minimal signaling | active | – |
| B4 | – | – | – | – | – | – | – | – | – | significantly more potent than FGF21 |
